Experimental data reported in publication PMC11184549.

What was measured:
[1] = biological target: FITC-labeled DENV3 NS5 NLS_(C-term) peptide (dengue virus serotype 3 (DENV3)); test: fluorescence polarisation
[2] = biological target: FITC-labeled DENV2 NS5 NLS_(C-term) peptide (dengue virus serotype 2 (DENV2)); test: fluorescence polarisation

Chain of human IMPα7 lacking the IMPβ-binding domain (IMPαΔIBB) (O60684 73-536, stated change not applied): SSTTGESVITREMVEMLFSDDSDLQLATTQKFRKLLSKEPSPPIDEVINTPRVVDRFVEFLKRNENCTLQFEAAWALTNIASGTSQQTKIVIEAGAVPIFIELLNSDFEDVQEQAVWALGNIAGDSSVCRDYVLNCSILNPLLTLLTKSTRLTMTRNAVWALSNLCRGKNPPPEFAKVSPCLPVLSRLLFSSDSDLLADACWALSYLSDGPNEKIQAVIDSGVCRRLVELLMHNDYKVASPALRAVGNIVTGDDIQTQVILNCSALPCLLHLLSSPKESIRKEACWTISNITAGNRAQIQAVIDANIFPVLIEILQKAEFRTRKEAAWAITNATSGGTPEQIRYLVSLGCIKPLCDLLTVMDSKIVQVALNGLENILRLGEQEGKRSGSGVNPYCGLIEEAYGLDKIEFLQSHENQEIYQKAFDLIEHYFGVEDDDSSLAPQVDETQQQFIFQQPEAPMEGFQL
Chain of human IMPα3 lacking the IMPβ-binding domain (IMPαΔIBB) (O00629 64-521, stated change not applied): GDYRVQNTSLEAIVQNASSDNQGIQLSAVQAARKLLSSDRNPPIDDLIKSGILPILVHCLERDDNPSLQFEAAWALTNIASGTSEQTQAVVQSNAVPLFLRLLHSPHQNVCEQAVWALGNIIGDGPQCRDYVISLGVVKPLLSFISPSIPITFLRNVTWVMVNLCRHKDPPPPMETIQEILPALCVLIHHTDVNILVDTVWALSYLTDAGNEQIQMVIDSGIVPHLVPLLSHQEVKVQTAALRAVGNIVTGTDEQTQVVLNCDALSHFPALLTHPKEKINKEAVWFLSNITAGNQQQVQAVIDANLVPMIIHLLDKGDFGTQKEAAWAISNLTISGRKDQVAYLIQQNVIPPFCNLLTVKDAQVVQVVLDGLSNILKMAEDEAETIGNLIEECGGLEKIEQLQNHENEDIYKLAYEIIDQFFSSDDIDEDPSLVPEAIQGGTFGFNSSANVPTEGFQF

| Substance | Kd [1] | Kd [2] |
| --- | --- | --- |
| human IMPα3 lacking the IMPβ-binding domain (IMPαΔIBB) (from UniProt O00629 64-521) (domain or fragment) | 150 nM | 80 nM |
| human IMPα7 lacking the IMPβ-binding domain (IMPαΔIBB) (from UniProt O60684 73-536) (domain or fragment) | 190 nM | 180 nM |
| human IMPα1 lacking the IMPβ-binding domain (IMPαΔIBB) (from UniProt P52292 70-529) (domain or fragment) | 140 nM | 90 nM |
